From patent publication US20210155689A1 (SHANGHAI PHARMAEXPLORER, published 2021)
Changes are numbered by the printed parent chain.

B1: 105F1E10 mouse-human chimeric antibody (antibody, V domains shown)
VH: EVQLQQSGPELVKPGASVKMSCRASGYTFTDFKMHWMKQSHGKSLEWIGYIAPNNGGTAYNQKFRGKATLTVNESSNTAYMELRSLTSEDSAVYYCVDWDDVDYWGQGTTLTVSS
VL: DIKMTQSPSSMYASLGERVTITCKASQDINSYLSWFQQKSGKSPKTLIYRANRLVDGVPSRFSGSGSGQDYSLTISSLEYEDMGIYYCLQYVEFPLTFGAGTKLELK
notes: also called mAb009-105F1E10
B2: 405B8H3 mouse-human chimeric antibody (antibody, V domains shown)
VH: QVQLQQSGAELVRPGASVTLSCKASGYTFTDYEMHWVKQTPVHGLEWIGATDPETGNSAYNQKFKGKAIMTADKSSSTAYMELRSLTSEDSAVYYCISTGWNDWGQGTSLTVSS
VL: B1 VL with S40P, N52D, V55L, E81G, V92D, L96Y, A100G, L106I
notes: also called mAb103-405B8H3
B3: 409B11E12 mouse-human chimeric antibody (antibody, V domains shown)
VH: B2 VH with P41T, G56S, N57Y, M70L, S98A
VL: B1 VL with I2L, S40P, V55L, V92D, L96Y, A100G, L106I
notes: also called mAb104-409B11E12
B4: 409D4E10 mouse-human chimeric antibody (antibody, V domains shown)
VH: B2 VH with Y27N, G56D, S58T, M70L, A72T, S98T, T99S
VL: B1 VL with S40P, V55L, V92N, L96Y, A100G, L106I
notes: also called mAb112-409D4E10
B5: 556F6B8 mouse-human chimeric antibody (antibody, V domains shown)
VH: RVQLKQSGPGLVQPSQSLSITCTVSGFSLIKYGVHWVRQSPGEGLEWLGVIWRGGITDYNAAFMSRLSITKDNSKSQVFFKMNSLQADDTAIYYCAKWDGPLAMDYWGQGTSVTVSS
VL: DIVMTQSHKFLSTSVGDRVSITCKASQDVGTTVAWYQQKPGQSPKLLIYWASTRHTGVPDRFTGSGSGTDFTLTISNVQSEDLADYFCQQYSSYPYTFGGGTKLEIK
notes: also called mAb123-556F6B8; 556F8B8
B6: 405B8H3 (mouse antibody purified from hybridoma) (antibody, V domains shown)
VH: B2 VH
VL: B1 VL with S40P, N52D, V55L, E81G, V92D, L96Y, A100G, L106I
notes: also called mAb103-405B8H3; 405B81-13
B7: 105F1E10 (mouse antibody purified from hybridoma) (antibody, V domains shown)
VH: B1 VH
VL: B1 VL
notes: also called mAb009-105F1E10
B8: 409D4E10 (mouse antibody purified from hybridoma) (antibody, V domains shown)
VH: B2 VH with Y27N, G56D, S58T, M70L, A72T, S98T, T99S
VL: B1 VL with S40P, V55L, V92N, L96Y, A100G, L106I
notes: also called mAb112-409D4E10
B9: 409B11E12 (mouse antibody purified from hybridoma) (antibody, V domains shown)
VH: B2 VH with P41T, G56S, N57Y, M70L, S98A
VL: B1 VL with I2L, S40P, V55L, V92D, L96Y, A100G, L106I
notes: also called mAb104-409B11E12
B10: 556F6B8 (mouse antibody purified from hybridoma) (antibody, V domains shown)
VH: B5 VH
VL: B5 VL
notes: also called mAb123-556F6B8

The binders below were run against T1, human LAG-3 on cells (HEK293-hLAG-3 stable cell line) (human, UniProt P18627 23-525) (assay: FACS, HEK293-hLAG-3, antibody 0.320 nM).
T1 sequence: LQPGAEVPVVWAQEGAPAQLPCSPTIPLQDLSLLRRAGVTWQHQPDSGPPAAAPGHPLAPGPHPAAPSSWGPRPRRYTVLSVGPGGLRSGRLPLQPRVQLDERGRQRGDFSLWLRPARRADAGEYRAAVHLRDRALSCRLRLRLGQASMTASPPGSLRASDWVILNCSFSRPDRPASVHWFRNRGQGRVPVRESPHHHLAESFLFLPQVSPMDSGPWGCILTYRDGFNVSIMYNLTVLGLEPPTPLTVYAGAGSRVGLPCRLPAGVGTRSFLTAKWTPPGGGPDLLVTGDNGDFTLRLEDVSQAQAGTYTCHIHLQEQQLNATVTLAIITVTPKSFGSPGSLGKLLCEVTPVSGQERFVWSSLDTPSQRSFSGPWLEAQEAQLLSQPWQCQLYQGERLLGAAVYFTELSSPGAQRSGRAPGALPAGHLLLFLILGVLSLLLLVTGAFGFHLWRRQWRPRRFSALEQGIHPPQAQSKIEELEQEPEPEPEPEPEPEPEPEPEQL
Excerpt: (§1) The pIRES plasmid with the monkey-derived full-length gene was transfected into the HEK293 cell line to construct a HEK293 stable cell line containing monkey LAG-3 (herein referred to as HEK293-cLAG-3 stable cell line). The HEK293-hLAG-3 stable cell line and HEK293-cLAG-3 stable cell line were expanded in a T-75 cell culture flask to a 90% confluence. The medium was aspirated, and the cells were washed with HBSS (Hanks' Balanced Salt Solution) 1-2 times, then treated with a enzyme-free cell dissociation fluid (Versene solution: Life technology) and the cells were collected. The cells were washed with HBSS buffer for 1-2 times. After counted, the cells were diluted with HBSS to 1-2×10⁶ cells per ml, added with 1% goat serum blocking solution, incubated on ice for 20-30 minutes, and then washed with HBSS for 2 times by centrifugation. The collected cells were suspended in the FACS buffer (HBSS+1% BSA) to 2×10⁶ cells/ml, added as 100 microliters per well to a 96-well FACS reaction plate, added with 100 microliters per well of the antibody sample to be tested, incubated on ice for 1-2 hours. The plate was washed twice with the FACS buffer by centrifugation, added with 100 microliters of fluorescent (Alexa 488)-labeled secondary antibodies per well, and incubated on ice for 0.5-1.0 hours. The plate was washed 2-3 times with FACS buffer by centrifugation, added with 100 μl fixative solution (4% Paraformaldehyde) per well to suspend the cells. 5-10 minutes later, it was washed 1-2 times with FACS buffer by centrifugation. The cells were suspended with 100 microliters of FACS buffer, FACS (FACSCalibur, BD) was used for detection and the results were analyzed.

B1 was tested. Which Mean fluorescence intensity did it give?
The Mean fluorescence intensity was 10.7.

With B2 as the binder, how does the Mean fluorescence intensity read?
The Mean fluorescence intensity was 17.3.

Which Mean fluorescence intensity does the source give for B3 here?
The Mean fluorescence intensity was 16.8.

With B4 as the binder, how does the Mean fluorescence intensity read?
The Mean fluorescence intensity was 15.7.

How did the Mean fluorescence intensity turn out when B5 was run?
The Mean fluorescence intensity was 14.3.

Biological target: T2, monkey LAG-3 (full length, on the cell surface) (monkey, UniProt P18627 24-525 (human entry))
T2 construct: also called HEK293-cLAG-3; monkey LAG-3 protein on the cell surface
T2 chain: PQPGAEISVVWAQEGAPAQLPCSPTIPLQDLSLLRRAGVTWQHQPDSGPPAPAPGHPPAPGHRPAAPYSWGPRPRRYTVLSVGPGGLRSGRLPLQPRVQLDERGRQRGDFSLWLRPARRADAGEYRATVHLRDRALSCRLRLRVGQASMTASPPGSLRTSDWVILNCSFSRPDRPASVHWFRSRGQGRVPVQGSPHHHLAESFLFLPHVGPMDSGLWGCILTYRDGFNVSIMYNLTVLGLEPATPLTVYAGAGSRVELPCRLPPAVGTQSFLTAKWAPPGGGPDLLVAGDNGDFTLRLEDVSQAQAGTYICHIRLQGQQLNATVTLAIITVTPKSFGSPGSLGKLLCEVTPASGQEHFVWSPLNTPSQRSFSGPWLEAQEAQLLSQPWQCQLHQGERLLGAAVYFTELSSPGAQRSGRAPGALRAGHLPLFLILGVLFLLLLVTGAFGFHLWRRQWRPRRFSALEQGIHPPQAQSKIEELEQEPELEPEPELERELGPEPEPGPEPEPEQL
Assay: FACS, HEK293-cLAG-3; 0.064 nM
Excerpt: as §1

How did the Mean fluorescence intensity turn out when B6 was run?
The Mean fluorescence intensity was 4.9 MFI.

With B7 as the binder, how does the Mean fluorescence intensity read?
Its Mean fluorescence intensity is 4.5 MFI.

Which Mean fluorescence intensity does the source give for B8 here?
The Mean fluorescence intensity was 4.7 MFI.

For B9, which Mean fluorescence intensity is on record?
Its Mean fluorescence intensity is 4.2 MFI.

B10 was tested. Which Mean fluorescence intensity did it give?
The Mean fluorescence intensity was 5.1 MFI.

What follows are binders tested against T1, human LAG-3 on cells (HEK293-hLAG-3 …) (assay: FACS, HEK293-hLAG-3, antibody 0.064 nM).
Excerpt: as §1

Which Mean fluorescence intensity does the source give for B1 here?
The Mean fluorescence intensity was 5.1.

B2 was tested. Which Mean fluorescence intensity did it give?
Its Mean fluorescence intensity is 6.3.

With B3 as the binder, how does the Mean fluorescence intensity read?
Its Mean fluorescence intensity is 6.3.

For B4, which Mean fluorescence intensity is on record?
Its Mean fluorescence intensity is 6.3.

How did the Mean fluorescence intensity turn out when B5 was run?
Its Mean fluorescence intensity is 6.5.

Each binder was assayed against T3, human LAG-3 (full length, on the cell surface) (human, UniProt P18627 23-525) (assay: FACS, HEK293-hLAG-3; 40.000 nM).
T3 construct: Full-length human LAG-3 expressed on cells; also called HEK293-hLAG-3; HEK293 cells transfected with LAG-3 gene
T3 sequence: T1 sequence
Excerpt: as §1

B6 was tested. Which Mean fluorescence intensity did it give?
The Mean fluorescence intensity was 321 MFI.

With B7 as the binder, how does the Mean fluorescence intensity read?
The Mean fluorescence intensity was 315 MFI.

Which Mean fluorescence intensity does the source give for B8 here?
The Mean fluorescence intensity was 153 MFI.

For B9, which Mean fluorescence intensity is on record?
The Mean fluorescence intensity was 148 MFI.

How did the Mean fluorescence intensity turn out when B10 was run?
The Mean fluorescence intensity was 81.8 MFI.

The binders below were run against T1, human LAG-3 on cells (HEK293-hLAG-3 …) (assay: FACS, HEK293-hLAG-3, antibody 0.000 nM).
Excerpt: as §1

How did the Mean fluorescence intensity turn out when B1 was run?
The Mean fluorescence intensity was 2.6.

Which Mean fluorescence intensity does the source give for B2 here?
The Mean fluorescence intensity was 2.8.

B3 was tested. Which Mean fluorescence intensity did it give?
Its Mean fluorescence intensity is 2.8.

How did the Mean fluorescence intensity turn out when B4 was run?
Its Mean fluorescence intensity is 3.

Which Mean fluorescence intensity does the source give for B5 here?
Its Mean fluorescence intensity is 3.3.
